Data published in US20220057403A1.

Molecular target: HA-tagged re-expressed version of the Qa-1b molecule (mouse)
Assay: immunoprecipitation of Qa-1b from tumor cells, mass spectrometry of the associated peptides

HA-tagged re-expressed version of the Qa-1b molecule (mouse), sequence (P06339 21-357, chain 1 of 2): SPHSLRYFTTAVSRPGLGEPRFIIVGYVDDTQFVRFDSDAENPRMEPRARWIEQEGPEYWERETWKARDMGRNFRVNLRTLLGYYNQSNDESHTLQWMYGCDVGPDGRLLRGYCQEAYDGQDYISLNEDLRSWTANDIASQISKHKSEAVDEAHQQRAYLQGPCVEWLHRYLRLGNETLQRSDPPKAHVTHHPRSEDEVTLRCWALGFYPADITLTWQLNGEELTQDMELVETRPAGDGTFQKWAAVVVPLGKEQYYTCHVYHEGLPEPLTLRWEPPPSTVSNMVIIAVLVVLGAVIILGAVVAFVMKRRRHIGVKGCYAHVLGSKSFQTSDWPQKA
HA-tagged re-expressed version of the Qa-1b molecule (mouse), sequence (P01887 21-119, chain 2 of 2, further chain): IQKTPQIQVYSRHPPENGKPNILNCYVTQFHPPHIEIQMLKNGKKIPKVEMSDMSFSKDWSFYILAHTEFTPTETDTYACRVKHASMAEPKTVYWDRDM

AMAPRTLLL [Mouse Qdm Peptide]
percent of Qa-1b associated with the peptide (control sample): > 99%
